For the test, the target named is huVEGF 165 (human). Nature of the test: indirect ELISA, huVEGF coated at 0.5 ug/ml, four-parameter fit.
Sequence of huVEGF 165 (human) (chain, as listed by the source, form in doubt): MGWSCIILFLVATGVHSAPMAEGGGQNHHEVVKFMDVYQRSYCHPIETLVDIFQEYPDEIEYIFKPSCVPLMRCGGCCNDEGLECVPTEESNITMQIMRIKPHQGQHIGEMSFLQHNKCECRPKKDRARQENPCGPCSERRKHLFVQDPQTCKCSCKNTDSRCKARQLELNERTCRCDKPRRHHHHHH

As for 商品化贝伐单抗(avastin) (antibody), the EC50 amounted to 0.19 nM. This counts as sub-nanomolar.

For the origin of these results see CN105330739A.
